We go through 3 molecules from publication PMC4705995, “The Protein Interaction of RNA Helicase B (RhlB) and Polynucleotide Phosphorylase (PNPase) Contributes to the Homeostatic Control of Cysteine in Escherichia coli*” (The Journal of Biological Chemistry, 2015).

Usually koff stands for the first-order rate constant of dissociation. Read a low koff as slow dissociation. Usually Kd stands for a measure of binding affinity in units of concentration. As a reminder, the kon is the rate constant with which the complex forms. Read a high kon as faster complex formation.

The labels stand for the following.
B3: FlagPNPase (Flag-tagged PNP) (enzyme)
chain: MLNPIVRKFQYGQHTVTLETGMMARQATAAVMVSMDDTAVFVTVVGQKKAKPGQDFFPLTVNYQERTYAAGRIPGSFFRREGRPSEGETLIARLIDRPIRPLFPEGFVNEVQVIATVVSVNPQVNPDIVAMIGASAALSLSGIPFNGPIGAARVGYINDQYVLNPTQDELKESKLDLVVAGTEAAVLMVESEAQLLSEDQMLGAVVFGHEQQQVVIQNINELVKEAGKPRWDWQPEPVNEALNARVAALAEARLSDAYRITDKQERYAQVDVIKSETIATLLAEDETLDENELGEILHAIEKNVVRSRVLAGEPRIDGREKDMIRGLDVRTGVLPRTHGSALFTRGETQALVTATLGTARDAQVLDELMGERTDTFLFHYNFPPYSVGETGMVGSPKRREIGHGRLAKRGVLAVMPDMDKFPYTVRVVSEITESNGSSSMASVCGASLALMDAGVPIKAAVAGIAMGLVKEGDNYVVLSDILGDEDHLGDMDFKVAGSRDGISALQMDIKIEGITKEIMQVALNQAKGARLHILGVMEQAINAPRGDISEFAPRIHTIKINPDKIKDVIGKGGSVIRALTEETGTTIEIEDDGTVKIAATDGEKAKHAIRRIEEITAEIEVGRVYTGKVTRIVDFGAFVAIGGGKEGLVHISQIADKRVEKVTDYLQMGQEVPVKVLEVDRQGRIRLSIKEATEQSQPAAAPEAPAAEQGE

In experiment [1] the target is B3. The experiment can be described thus: SPR. (In general: In SPR one partner is held on a chip, and binding of the other changes the refractive index at the surface.)
Experiment [2] deals with B3. In words: SPR.
Experiment [3] concerns the target T1, FlagPNPase (Flag-tagged PNP) (Escherichia coli, UniProt P05055 1-711).
T1 construct: polynucleotide phosphorylase (PNPase) of Escherichia coli; also called pFlagPNP; polynucleotide phosphorylase
T1 sequence (looked up): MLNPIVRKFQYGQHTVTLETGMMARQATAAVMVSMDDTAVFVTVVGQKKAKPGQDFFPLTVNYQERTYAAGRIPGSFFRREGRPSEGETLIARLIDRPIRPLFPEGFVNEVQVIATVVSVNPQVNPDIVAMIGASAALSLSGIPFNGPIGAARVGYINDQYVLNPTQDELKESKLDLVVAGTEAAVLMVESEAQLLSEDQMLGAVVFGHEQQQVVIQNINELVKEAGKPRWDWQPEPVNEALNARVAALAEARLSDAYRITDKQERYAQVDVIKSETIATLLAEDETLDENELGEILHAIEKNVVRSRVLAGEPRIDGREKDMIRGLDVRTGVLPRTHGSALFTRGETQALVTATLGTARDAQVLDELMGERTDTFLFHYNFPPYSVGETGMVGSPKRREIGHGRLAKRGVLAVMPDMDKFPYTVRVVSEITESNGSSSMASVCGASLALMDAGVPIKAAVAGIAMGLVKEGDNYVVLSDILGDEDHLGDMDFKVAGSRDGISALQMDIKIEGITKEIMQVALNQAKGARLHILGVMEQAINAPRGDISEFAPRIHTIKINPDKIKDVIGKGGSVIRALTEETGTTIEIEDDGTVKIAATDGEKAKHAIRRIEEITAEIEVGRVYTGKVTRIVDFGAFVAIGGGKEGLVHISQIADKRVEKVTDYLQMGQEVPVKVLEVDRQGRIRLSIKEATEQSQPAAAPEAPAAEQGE
The experiment can be described thus: SPR; Biacore X; purified FlagPNPase immobilised on a CM5 chip by amine coupling; 0.75 to 24 uM FlagRhlB injected at 10 ul/min, 25 °C. As to conditions: both partners purified.

Experiment [4] addresses T2, FlagRhlB^P238L (Flag-tagged RhlB^P238L) (Escherichia coli, UniProt P0A8J8 1-421, P238L).
T2 sequence: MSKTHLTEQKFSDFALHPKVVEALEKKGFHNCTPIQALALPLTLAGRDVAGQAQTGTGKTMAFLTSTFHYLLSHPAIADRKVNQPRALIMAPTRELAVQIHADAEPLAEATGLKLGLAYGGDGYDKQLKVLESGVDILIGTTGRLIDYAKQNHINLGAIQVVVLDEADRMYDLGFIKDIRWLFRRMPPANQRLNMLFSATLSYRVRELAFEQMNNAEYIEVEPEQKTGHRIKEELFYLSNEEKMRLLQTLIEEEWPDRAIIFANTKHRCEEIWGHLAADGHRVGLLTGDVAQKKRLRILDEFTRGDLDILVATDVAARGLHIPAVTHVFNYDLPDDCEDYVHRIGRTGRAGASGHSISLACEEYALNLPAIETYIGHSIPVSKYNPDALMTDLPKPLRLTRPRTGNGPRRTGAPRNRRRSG
In words: SPR.

Experiment [5] has as its target T2, FlagRhlB^P238L (Flag-tagged RhlB^P238L). The experiment can be described thus: SPR. This is another data set of the same source.

B1: FlagRhlB^wt (Flag-tagged wild-type RhlB) (enzyme, Escherichia coli, UniProt P0A8J8 1-421, looked up)
chain: MSKTHLTEQKFSDFALHPKVVEALEKKGFHNCTPIQALALPLTLAGRDVAGQAQTGTGKTMAFLTSTFHYLLSHPAIADRKVNQPRALIMAPTRELAVQIHADAEPLAEATGLKLGLAYGGDGYDKQLKVLESGVDILIGTTGRLIDYAKQNHINLGAIQVVVLDEADRMYDLGFIKDIRWLFRRMPPANQRLNMLFSATLSYRVRELAFEQMNNAEYIEVEPEQKTGHRIKEELFYPSNEEKMRLLQTLIEEEWPDRAIIFANTKHRCEEIWGHLAADGHRVGLLTGDVAQKKRLRILDEFTRGDLDILVATDVAARGLHIPAVTHVFNYDLPDDCEDYVHRIGRTGRAGASGHSISLACEEYALNLPAIETYIGHSIPVSKYNPDALMTDLPKPLRLTRPRTGNGPRRTGAPRNRRRSG
notes: RNA helicase B (RhlB) of Escherichia coli; also called pFlagRhlB^wt
B1 returned a koff in experiment [1] of 0.0021 s⁻¹. The molecule also displayed a Kd in experiment [2] of 1.67 µM. Also, the kon in experiment [3] turned out to be 1260 M⁻¹ s⁻¹.

B2: FlagRhlB^P238L (Flag-tagged RhlB^P238L) (enzyme, Escherichia coli, UniProt P0A8J8 1-421, looked up)
chain: MSKTHLTEQKFSDFALHPKVVEALEKKGFHNCTPIQALALPLTLAGRDVAGQAQTGTGKTMAFLTSTFHYLLSHPAIADRKVNQPRALIMAPTRELAVQIHADAEPLAEATGLKLGLAYGGDGYDKQLKVLESGVDILIGTTGRLIDYAKQNHINLGAIQVVVLDEADRMYDLGFIKDIRWLFRRMPPANQRLNMLFSATLSYRVRELAFEQMNNAEYIEVEPEQKTGHRIKEELFYLSNEEKMRLLQTLIEEEWPDRAIIFANTKHRCEEIWGHLAADGHRVGLLTGDVAQKKRLRILDEFTRGDLDILVATDVAARGLHIPAVTHVFNYDLPDDCEDYVHRIGRTGRAGASGHSISLACEEYALNLPAIETYIGHSIPVSKYNPDALMTDLPKPLRLTRPRTGNGPRRTGAPRNRRRSG
notes: RNA helicase B (RhlB) of Escherichia coli with P238L, introduced into pFlagRhlB by site-directed mutagenesis; also called pFlagRhlB^P238L
With B2, the kon in experiment [3] was 311 M⁻¹ s⁻¹.

Take B3: in experiment [4], the koff came out at 0.00207 s⁻¹. In experiment [5], the Kd stood at 6.64 µM.
